Test results reported in patent publication US20080226675A1.

How the values were obtained:
[1] = molecular target: Apolipoprotein B mRNA-editing enzyme-catalytic polypeptide-like 3G (A3G), wild type, cmyc-tagged (human) (UniProt Q9HC16); experiment: cell-based or functional assay
[2] = molecular target: mutant A3G D128K, cmyc-tagged (human) (UniProt Q9HC16); experiment: cell-based or functional assay

Substance	infectivity of HIV-GFP produced from D3GFP-carrying 293T cells in the presence of HIV-1 Vif, percent of control [1]	infectivity of HIV-GFP produced from D3GFPD128K-carrying 293T cells in the presence of HIV-1 Vif, percent of control [2]	inhibition of HIV-GFP replication (GFP+ 293T cells by flow cytometry) by pD3GFPD128K in the presence of HIV-1 Vif [2] [%]	percent green fluorescent 293T cells after infection with D3GFP vector produced in the presence of SIVmac Vif [1] [%]	percent green fluorescent 293T cells after infection with D3GFPD128K vector produced in the presence of SIVmac Vif [2] [%]
HIV-1 viral infectivity factor (Vif)	89 % of control	1 % of control	90	–	–
macaque simian immunodeficiency virus Vif (SIVmac Vif)	–	–	–	24	26
